Measured values taken from the supplement of paper PMC10065799, “High-throughput profiling of sequence recognition by tyrosine kinases and SH2 domains using bacterial peptide display” (eLife, 2023).

Columns and labels:
EPHB2 = EPHB2 (UniProt P29323); assay: phosphorylation enrichment, bacterial display (enrichment ratio); higher = better substrate or ligand; peptides without Tyr show the background
FGFR1 = FGFR1 (UniProt P11362); assay: as above
Fyn = Fyn (UniProt P06241); assay: as above
Fes = Fes (UniProt P07332); assay: as above
Fes, sequence (P07332 whole entry, looked up): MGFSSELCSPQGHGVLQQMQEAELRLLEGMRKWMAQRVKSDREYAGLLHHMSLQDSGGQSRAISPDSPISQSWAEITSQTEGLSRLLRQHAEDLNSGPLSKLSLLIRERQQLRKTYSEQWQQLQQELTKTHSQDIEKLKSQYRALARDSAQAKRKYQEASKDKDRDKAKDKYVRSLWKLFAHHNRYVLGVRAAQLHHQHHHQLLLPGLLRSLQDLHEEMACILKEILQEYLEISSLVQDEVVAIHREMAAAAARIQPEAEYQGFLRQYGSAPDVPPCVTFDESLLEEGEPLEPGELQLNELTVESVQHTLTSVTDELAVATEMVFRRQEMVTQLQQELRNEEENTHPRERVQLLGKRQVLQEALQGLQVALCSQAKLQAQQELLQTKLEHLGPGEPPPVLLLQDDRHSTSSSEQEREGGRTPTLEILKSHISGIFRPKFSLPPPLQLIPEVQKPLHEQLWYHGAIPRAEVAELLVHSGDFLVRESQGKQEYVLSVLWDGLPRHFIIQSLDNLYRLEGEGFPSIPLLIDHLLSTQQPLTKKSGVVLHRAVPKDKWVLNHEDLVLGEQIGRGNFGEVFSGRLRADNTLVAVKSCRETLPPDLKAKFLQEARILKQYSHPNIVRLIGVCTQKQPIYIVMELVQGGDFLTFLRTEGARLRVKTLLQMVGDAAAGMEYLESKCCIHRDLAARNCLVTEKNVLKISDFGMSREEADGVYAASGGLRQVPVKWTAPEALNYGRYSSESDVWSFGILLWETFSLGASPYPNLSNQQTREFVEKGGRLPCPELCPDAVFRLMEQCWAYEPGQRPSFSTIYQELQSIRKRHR

EPHB1 = EPHB1 (UniProt P54762); assay: as above
EPHB1, sequence (P54762 whole entry, looked up): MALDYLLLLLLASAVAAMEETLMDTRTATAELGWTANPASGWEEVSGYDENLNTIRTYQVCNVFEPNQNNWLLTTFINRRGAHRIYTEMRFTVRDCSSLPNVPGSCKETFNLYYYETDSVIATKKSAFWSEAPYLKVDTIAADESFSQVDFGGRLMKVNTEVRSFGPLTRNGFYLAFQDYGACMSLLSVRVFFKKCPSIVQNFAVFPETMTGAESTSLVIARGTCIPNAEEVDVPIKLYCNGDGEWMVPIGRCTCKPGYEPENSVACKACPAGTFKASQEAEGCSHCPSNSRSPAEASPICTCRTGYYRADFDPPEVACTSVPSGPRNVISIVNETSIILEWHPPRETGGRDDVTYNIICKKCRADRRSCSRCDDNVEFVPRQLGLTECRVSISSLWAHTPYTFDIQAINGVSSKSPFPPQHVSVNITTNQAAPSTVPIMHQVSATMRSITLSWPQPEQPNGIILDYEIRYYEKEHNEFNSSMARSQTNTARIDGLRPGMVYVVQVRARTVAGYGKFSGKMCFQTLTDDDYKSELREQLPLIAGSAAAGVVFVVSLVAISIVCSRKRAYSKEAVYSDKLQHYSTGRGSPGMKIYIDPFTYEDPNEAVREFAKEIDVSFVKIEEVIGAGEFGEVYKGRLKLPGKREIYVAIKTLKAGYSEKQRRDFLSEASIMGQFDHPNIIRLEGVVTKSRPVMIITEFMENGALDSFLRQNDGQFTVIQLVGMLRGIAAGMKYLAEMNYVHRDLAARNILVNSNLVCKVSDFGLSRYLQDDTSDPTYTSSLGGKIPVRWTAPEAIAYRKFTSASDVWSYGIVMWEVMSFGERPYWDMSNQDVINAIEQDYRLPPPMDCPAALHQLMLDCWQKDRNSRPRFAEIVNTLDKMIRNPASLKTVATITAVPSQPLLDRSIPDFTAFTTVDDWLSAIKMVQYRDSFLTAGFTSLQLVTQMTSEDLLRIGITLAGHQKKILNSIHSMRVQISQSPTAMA

c-Src = assay: as above
AncSZ = assay: as above
Fer (mouse) = assay: as above
Hck = Hck (UniProt P08631); assay: as above
Hck, sequence (P08631 whole entry, looked up): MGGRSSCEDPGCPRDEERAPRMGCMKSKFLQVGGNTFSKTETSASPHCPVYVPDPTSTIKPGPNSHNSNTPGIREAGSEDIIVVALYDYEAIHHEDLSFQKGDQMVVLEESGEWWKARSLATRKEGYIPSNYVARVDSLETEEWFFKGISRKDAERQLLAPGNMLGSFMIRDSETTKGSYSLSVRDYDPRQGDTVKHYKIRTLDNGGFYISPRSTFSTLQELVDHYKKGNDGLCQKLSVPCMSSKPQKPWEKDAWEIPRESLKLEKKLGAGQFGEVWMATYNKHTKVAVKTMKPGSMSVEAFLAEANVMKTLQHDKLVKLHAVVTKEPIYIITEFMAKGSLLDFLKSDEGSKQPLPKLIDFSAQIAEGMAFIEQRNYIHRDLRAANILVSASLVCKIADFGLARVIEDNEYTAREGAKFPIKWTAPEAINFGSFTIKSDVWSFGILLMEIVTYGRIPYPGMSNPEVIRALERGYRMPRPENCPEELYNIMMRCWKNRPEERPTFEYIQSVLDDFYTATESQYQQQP

FGFR3 = FGFR3 (UniProt P22607); assay: as above
MERTK = MERTK (UniProt Q12866); assay: as above
MERTK, sequence (Q12866 whole entry, looked up): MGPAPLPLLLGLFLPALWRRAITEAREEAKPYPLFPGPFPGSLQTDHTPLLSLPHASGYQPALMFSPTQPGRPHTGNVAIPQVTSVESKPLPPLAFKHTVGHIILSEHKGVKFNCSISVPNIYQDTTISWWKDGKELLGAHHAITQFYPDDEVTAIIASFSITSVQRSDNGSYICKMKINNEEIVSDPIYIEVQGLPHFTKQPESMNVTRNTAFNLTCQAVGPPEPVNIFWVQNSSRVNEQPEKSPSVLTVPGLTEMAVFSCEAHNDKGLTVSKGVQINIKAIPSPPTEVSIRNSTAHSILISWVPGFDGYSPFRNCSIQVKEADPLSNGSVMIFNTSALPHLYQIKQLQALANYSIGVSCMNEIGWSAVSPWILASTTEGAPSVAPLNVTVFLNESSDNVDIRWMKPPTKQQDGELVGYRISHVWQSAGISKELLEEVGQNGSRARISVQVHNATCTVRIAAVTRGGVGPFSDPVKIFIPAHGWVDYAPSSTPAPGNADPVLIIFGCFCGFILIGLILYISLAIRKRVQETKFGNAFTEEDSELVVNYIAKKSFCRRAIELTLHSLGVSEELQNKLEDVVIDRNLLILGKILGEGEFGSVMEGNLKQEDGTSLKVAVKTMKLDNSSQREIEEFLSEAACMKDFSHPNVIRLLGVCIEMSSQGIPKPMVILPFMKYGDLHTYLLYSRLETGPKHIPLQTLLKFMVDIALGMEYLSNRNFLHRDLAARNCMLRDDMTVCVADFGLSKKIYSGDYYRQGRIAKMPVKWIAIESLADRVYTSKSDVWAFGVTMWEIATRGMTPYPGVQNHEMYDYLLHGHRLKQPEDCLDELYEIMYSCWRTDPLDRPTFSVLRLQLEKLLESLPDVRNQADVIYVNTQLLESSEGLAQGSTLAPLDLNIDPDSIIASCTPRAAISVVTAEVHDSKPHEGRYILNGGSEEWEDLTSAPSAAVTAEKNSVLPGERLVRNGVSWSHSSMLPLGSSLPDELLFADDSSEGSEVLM

Jak2 = Jak2 (UniProt O60674); assay: as above
c-Abl (mouse) = assay: as above
SHP2-C SH2 = assay: SH2 binding enrichment of the phosphorylated peptide, bacterial display (enrichment ratio); higher = better substrate or ligand; peptides without Tyr show the background
Grb2 SH2 = Grb2 SH2 (UniProt P62993); assay: as above
c-Src SH2 = assay: as above
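Throughout, for SH2 binding enrichment of the phosphorylated peptide, bacterial display: peptide library displayed on the E. coli surface as eCPX fusions, selected cells deep-sequenced, score is each peptide's frequency after selection divided by its frequency in the input.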
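Throughout, for phosphorylation enrichment, bacterial display: 11-residue human phosphosite peptides and single-mutation variants displayed on the E. coli surface, counted by deep sequencing, each peptide's frequency after selection divided by its frequency in the unselected input library; frequency after pTyr selection over input frequency; kinase dosed for 20-30% of maximal phosphorylation in three min.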

Fyn, sequence (P06241 whole entry, looked up): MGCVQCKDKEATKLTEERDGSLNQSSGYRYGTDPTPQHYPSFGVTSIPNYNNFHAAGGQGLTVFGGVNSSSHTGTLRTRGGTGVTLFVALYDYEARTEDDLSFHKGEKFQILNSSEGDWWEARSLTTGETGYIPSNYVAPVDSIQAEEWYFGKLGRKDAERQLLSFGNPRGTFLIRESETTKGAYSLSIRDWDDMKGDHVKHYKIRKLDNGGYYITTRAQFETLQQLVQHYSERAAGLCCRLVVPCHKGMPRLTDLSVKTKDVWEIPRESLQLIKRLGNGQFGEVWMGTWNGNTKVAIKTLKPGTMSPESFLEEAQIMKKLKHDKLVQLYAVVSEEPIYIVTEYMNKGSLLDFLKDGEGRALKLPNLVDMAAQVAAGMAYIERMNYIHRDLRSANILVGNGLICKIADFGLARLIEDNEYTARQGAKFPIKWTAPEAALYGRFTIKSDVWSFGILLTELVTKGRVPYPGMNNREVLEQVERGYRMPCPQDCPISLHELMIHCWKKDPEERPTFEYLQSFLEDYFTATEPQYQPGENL
EPHB2, sequence (P29323 whole entry, looked up): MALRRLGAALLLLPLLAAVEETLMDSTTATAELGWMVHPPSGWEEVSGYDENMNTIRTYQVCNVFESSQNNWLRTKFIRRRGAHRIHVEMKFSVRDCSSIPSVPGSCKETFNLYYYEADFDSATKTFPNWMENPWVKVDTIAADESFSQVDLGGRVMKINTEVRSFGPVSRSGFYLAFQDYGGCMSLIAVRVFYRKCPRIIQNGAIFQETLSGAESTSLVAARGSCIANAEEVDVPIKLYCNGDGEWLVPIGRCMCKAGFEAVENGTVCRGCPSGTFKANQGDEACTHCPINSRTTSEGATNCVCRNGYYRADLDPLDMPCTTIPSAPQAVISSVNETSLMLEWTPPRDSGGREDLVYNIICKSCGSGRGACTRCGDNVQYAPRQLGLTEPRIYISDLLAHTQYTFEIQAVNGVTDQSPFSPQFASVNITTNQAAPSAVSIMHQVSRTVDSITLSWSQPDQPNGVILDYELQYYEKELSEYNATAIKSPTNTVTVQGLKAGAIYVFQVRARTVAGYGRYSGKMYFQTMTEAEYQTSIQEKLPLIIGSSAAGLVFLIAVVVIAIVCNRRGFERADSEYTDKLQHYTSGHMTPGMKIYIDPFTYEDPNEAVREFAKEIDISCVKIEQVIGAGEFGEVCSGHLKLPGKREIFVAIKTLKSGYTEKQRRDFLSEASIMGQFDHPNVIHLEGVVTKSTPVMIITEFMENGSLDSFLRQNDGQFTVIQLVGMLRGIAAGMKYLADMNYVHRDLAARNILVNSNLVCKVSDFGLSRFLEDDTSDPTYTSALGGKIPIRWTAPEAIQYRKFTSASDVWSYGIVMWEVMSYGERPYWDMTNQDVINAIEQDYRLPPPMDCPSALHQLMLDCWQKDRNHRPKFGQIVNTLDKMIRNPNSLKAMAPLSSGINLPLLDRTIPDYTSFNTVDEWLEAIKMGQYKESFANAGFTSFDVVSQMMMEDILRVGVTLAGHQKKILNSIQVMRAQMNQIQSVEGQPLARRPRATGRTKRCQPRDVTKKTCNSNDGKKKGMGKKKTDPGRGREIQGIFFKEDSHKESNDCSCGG

Sequence | phosphorylation enrichment (EPHB2) | phosphorylation enrichment (FGFR1) | phosphorylation enrichment (Fyn) | phosphorylation enrichment (Fes) | phosphorylation enrichment (EPHB1) | phosphorylation enrichment (c-Src) | phosphorylation enrichment (AncSZ) | phosphorylation enrichment (Fer (mouse)) | phosphorylation enrichment (Hck) | phosphorylation enrichment (FGFR3) | phosphorylation enrichment (MERTK) | phosphorylation enrichment (Jak2) | phosphorylation enrichment (c-Abl (mouse)) | SH2 binding enrichment (SHP2-C SH2) | SH2 binding enrichment (Grb2 SH2) | SH2 binding enrichment (c-Src SH2)
RFLRGYHQDAY [HLA-A_Y137_R138H] | 1.03 | 0.572 | 0.762 | 0.772 | 0.84 | 0.935 | 0.963 | 0.923 | 0.538 | 0.895 | 0.795 | 1.28 | 0.984 | 0.497 | 0.857 | 0.632
RGRSTYYWPRP [GAGE12J_Y9] | 0.707 | 0.742 | 0.68 | 0.546 | 0.656 | 0.494 | 0.869 | 0.607 | 0.762 | 0.869 | 0.98 | 0.715 | 0.859 | 0.55 | 0.8 | 0.501
RGVTHYILQTF [SLC39A4_Y359] | 0.703 | 0.664 | 0.499 | 1.27 | 0.394 | 0.48 | 1.09 | 0.582 | 0.711 | 0.905 | 0.553 | 1.24 | 0.944 | 1.2 | 1.33 | 1.05
RHPLDYLRQYP [NARS2_Y138_E137D] | 0.96 | 0.405 | 0.547 | 1.15 | 0.799 | 0.411 | 0.914 | 0.594 | 0.753 | 0.694 | 0.509 | 1.01 | 0.627 | 1.71 | 1.36 | 0.894
RHPLEYLRQYP [NARS2_Y138] | 0.45 | 0.75 | 0.579 | 1.13 | 0.523 | 0.577 | 0.664 | 0.536 | 0.561 | 0.586 | 0.454 | 1.22 | 1.37 | 0.938 | 1.38 | 0.775
RHPREYQDLLN [DES_Y388_L385P] | 0.569 | 0.377 | 0.698 | 0.545 | 0.537 | 0.464 | 0.668 | 0.327 | 0.463 | 0.572 | 0.41 | 0.785 | 0.487 | 0.906 | 1.06 | 1.29
RHSGSYFVTSV [APC_Y2838_L2839F] | 0.654 | 0.574 | 0.598 | 0.845 | 0.517 | 0.785 | 0.895 | 0.444 | 0.591 | 0.565 | 0.676 | 0.89 | 0.741 | 0.499 | 0.787 | 0.547
RKETFYILSCR [GUCY2C_Y681_T682I] | 0.474 | 0.553 | 0.373 | 1.59 | 0.546 | 0.448 | 1.44 | 0.665 | 0.355 | 0.917 | 0.525 | 0.953 | 1.1 | 0.663 | 1.15 | 0.519
RLDGEYFTLQI [TP53_Y327_P322R] | 0.716 | 5.82 | 1.34 | 1.54 | 0.748 | 2.16 | 1.89 | 0.72 | 0.772 | 4.05 | 0.538 | 2.46 | 1.2 | 0.572 | 0.701 | 0.484
RLGDLYKEEMR [VIM_Y150_E151K] | 0.672 | 0.674 | 0.756 | 1.17 | 0.779 | 0.587 | 1.08 | 0.43 | 0.824 | 0.832 | 0.362 | 0.995 | 0.762 | 0.752 | 1.09 | 0.607
RLLREYQELMN [KRT75_Y434] | 0.613 | 0.785 | 0.746 | 0.817 | 0.691 | 0.421 | 0.759 | 0.465 | 0.458 | 0.583 | 0.376 | 1.11 | 0.67 | 0.995 | 1.04 | 3.41
RLLRGHDQFAF [HLA-B_Y137_YF] | 0.32 | 0.309 | 0.289 | 0.554 | 0.327 | 0.505 | 0.388 | 0.316 | 0.405 | 0.472 | 0.34 | 1.07 | 0.716 | 0.724 | 1.06 | 0.748
RLLRGYDQLAF [HLA-C_Y137_S140L_YF] | 0.479 | 0.415 | 0.435 | 0.838 | 0.464 | 0.62 | 0.898 | 0.498 | 0.554 | 0.639 | 0.495 | 1.08 | 0.926 | 0.968 | 1.16 | 4.73
RLMLQYDAVVN [SLC25A32_Y152] | 0.703 | 0.47 | 0.57 | 1.67 | 0.733 | 0.406 | 1.32 | 0.662 | 0.702 | 0.674 | 0.414 | 1.13 | 0.685 | 0.863 | 1.02 | 1.88
RLNCIYYKDQT [RS1_Y165_W163C] | 0.639 | 0.971 | 0.878 | 1.16 | 0.722 | 1.74 | 1.01 | 0.497 | 0.889 | 0.751 | 1.57 | 1.21 | 0.897 | 0.456 | 1.15 | 0.527
RLRAAYNLVKR [PFKM_Y103] | 0.715 | 0.658 | 0.632 | 1.04 | 0.571 | 0.653 | 1.16 | 0.771 | 0.698 | 1.01 | 0.559 | 0.766 | 0.815 | 0.489 | 0.721 | 0.39
RLRKYHLGKYL [KLB_Y906_Y906H] | 0.399 | 0.29 | 0.318 | 0.498 | 0.439 | 0.387 | 0.726 | 0.426 | 0.253 | 0.464 | 0.503 | 0.483 | 0.61 | 0.594 | 0.476 | 0.395

Sequence | phosphorylation enrichment (EPHB2) | phosphorylation enrichment (FGFR1) | phosphorylation enrichment (Fyn) | phosphorylation enrichment (Fes) | phosphorylation enrichment (EPHB1) | phosphorylation enrichment (c-Src) | phosphorylation enrichment (AncSZ) | phosphorylation enrichment (Fer (mouse)) | phosphorylation enrichment (Hck) | phosphorylation enrichment (FGFR3) | phosphorylation enrichment (MERTK) | phosphorylation enrichment (Jak2) | phosphorylation enrichment (c-Abl (mouse)) | SH2 binding enrichment (SHP2-C SH2) | SH2 binding enrichment (Grb2 SH2) | SH2 binding enrichment (c-Src SH2)
RLRVVYPWTQR [HBB_Y36_L33R] | 0.363 | 0.422 | 0.6 | 0.711 | 0.367 | 0.382 | 0.688 | 0.335 | 0.364 | 0.568 | 0.819 | 0.494 | 0.484 | 0.44 | 1.06 | 0.636
RMDGTYACSFT [FLNB_Y704_YF] | 0.741 | 0.836 | 2.61 | 1.16 | 1.03 | 2.31 | 1.3 | 0.932 | 2.43 | 0.812 | 0.702 | 0.806 | 1.34 | 0.619 | 0.893 | 0.557
RNDQVYQPLRD [CD3D_Y149] | 1.18 | 1.17 | 5.01 | 0.7 | 1.26 | 4.45 | 0.875 | 0.575 | 10.9 | 0.927 | 1.26 | 0.673 | 0.728 | 0.491 | 0.787 | 0.663
RNVFFYSFLLK [PTEN_Y178_Y174N_YF] | 0.738 | 0.586 | 0.656 | 1.72 | 0.861 | 0.508 | 1.29 | 0.697 | 0.565 | 1.31 | 0.757 | 1.59 | 1.23 | 1.02 | 1.22 | 0.907
RNYGTYTAGLS [RHBDD1_Y264_D262G] | 3.23 | 0.546 | 2.18 | 0.748 | 0.804 | 1.94 | 0.781 | 0.519 | 2.76 | 0.533 | 0.55 | 0.74 | 0.629 | 0.512 | 0.835 | 0.533
RPYSPYIIRGM [LRP5_Y1531_R1529S] | 0.575 | 0.399 | 0.848 | 0.816 | 0.59 | 1.07 | 0.886 | 1.75 | 0.642 | 0.509 | 0.438 | 0.508 | 0.681 | 0.953 | 1.16 | 1.08
RQQEDYLLFKQ [RARRES1_Y159_YF] | 0.978 | 1.45 | 0.68 | 1.85 | 1.11 | 0.576 | 1.57 | 0.637 | 1.16 | 1.28 | 0.516 | 1.39 | 0.924 | 0.838 | 0.892 | 0.571
RQQQDYWLIDV [ANPEP_Y600] | 4.64 | 20.6 | 0.847 | 1.6 | 8.95 | 1.47 | 3.3 | 3.21 | 0.625 | 17.4 | 4.02 | 2.43 | 1.32 | 0.913 | 1.07 | 0.586
RRERLYGGGGG [FUS_Y526_P525L] | 0.398 | 0.546 | 0.535 | 1.14 | 0.677 | 0.878 | 0.701 | 0.499 | 0.365 | 0.545 | 0.561 | 0.528 | 0.39 | 0.404 | 0.657 | 0.402
RRGMPYGGHGD [TGM1_Y312_R315H] | 0.624 | 0.758 | 0.706 | 0.653 | 0.414 | 0.434 | 0.572 | 0.582 | 0.52 | 0.472 | 0.465 | 0.377 | 0.357 | 0.764 | 0.97 | 0.415
RRNEEYCLLDS [ITK_Y198] | 1.06 | 1.15 | 1.7 | 1.64 | 1 | 0.805 | 2.25 | 0.967 | 1.1 | 1.12 | 1.26 | 1.57 | 0.821 | 0.54 | 0.75 | 0.836
RRVLVYGDRGA [QDPR_Y16_G18D] | 0.322 | 0.413 | 0.542 | 0.539 | 0.34 | 0.573 | 0.585 | 0.424 | 0.525 | 0.549 | 0.48 | 0.485 | 0.445 | 0.529 | 0.838 | 0.442
RRYVYYYSYLL [PTEN_Y177] | 0.829 | 1.88 | 0.771 | 0.768 | 0.672 | 0.79 | 0.814 | 0.518 | 0.764 | 1.11 | 3.68 | 0.986 | 1.39 | 0.65 | 0.631 | 0.474
RSRRSYSCQVM [IGLL1_Y192] | 0.802 | 0.586 | 0.808 | 0.862 | 0.616 | 0.924 | 0.754 | 0.639 | 0.64 | 0.832 | 0.9 | 0.774 | 0.797 | 0.565 | 0.473 | 0.565
RTMPDYTSFNT [EPHB2_Y912_I909M] | 0.961 | 1.05 | 1.07 | 0.947 | 0.724 | 1.31 | 1.38 | 0.705 | 0.591 | 1 | 0.459 | 0.692 | 0.618 | 0.463 | 0.935 | 0.521
RTTKTYFPHFD [HBA1_Y43_P38R] | 0.527 | 0.914 | 0.418 | 0.86 | 1.1 | 1.24 | 0.967 | 0.458 | 0.569 | 1.17 | 0.87 | 2.09 | 0.884 | 1.18 | 1.28 | 1.23
